This passage reports ECL signal and Signal/Noise results from US20120316071A1 (published 2012).

For assay [1], the target named is T1, rHuman P-Cadherin/Fc Chimera, CF (R&D Systems Cat#861-PC) (human, UniProt P22223 108-654).
T1 construct: Bought recombinant protein
Description: ECL Multispot (MSD) assay, antigen spotted on plate, 10 nM Fab.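 Also: purified Fab bound to antigen spots for 1 h at 20 °C, then TAG detection antibody, electrochemiluminescence compared with each well's blank, ratio of 4 or more marks a hit.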

Assay [2] addresses T2, rHuman HGF R/c-MET/Fc Chimera, CF (R&D Systems Cat#358-MT/CF) (human, UniProt P08581 25-932).
T2 construct: Bought recombinant protein; also called HGF R/Fc
The assay is described as above.

The target of assay [3] is T3, rHuman IGF-1 sR (insulin-like growth factor-1 soluble receptor), CF (R&D Systems Cat#391-GR) (human, UniProt P08069 31-932).
T3 construct: Bought recombinant soluble receptor
Described as above.

In assay [4] the target is T4, rHuman ErbB2/Fc Chimera, CF (R&D Systems Cat#1129-ER) (human, UniProt P04626 23-652).
T4 construct: Bought recombinant protein
The assay is described as above.

Assay [5] concerns the target T5, rHuman EGF R/Fc Chimera, CF (R&D Systems Cat#344-ER) (human, UniProt P00533 25-645).
T5 construct: Bought recombinant protein
The description is as above.

For assay [6], the target named is T6, Recombinant Human DLL4 (R&D Systems Cat#1506-D4/CF) (human, UniProt Q9NR61 27-524).
T6 construct: Bought recombinant protein; also called delta-like protein 4; rHuman DLL4
Described as above.

Assay [7] has as its target T7, rHuman Erythropoietin R/Fc Chimera, CF (R&D Systems Cat#963-ER) (human, UniProt P19235 25-250).
T7 construct: Bought recombinant protein; also called EPO R; EPO R/Fc
T7 sequence (looked up): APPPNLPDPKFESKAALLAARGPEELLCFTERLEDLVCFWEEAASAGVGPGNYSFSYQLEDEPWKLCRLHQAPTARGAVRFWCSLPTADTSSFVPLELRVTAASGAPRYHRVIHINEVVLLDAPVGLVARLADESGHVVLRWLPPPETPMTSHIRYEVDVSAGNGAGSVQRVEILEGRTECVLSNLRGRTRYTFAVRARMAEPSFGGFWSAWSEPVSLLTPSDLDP
Described as above.

Assay [8] concerns the target T8, rHuman CD44/Fc Chimera, CF (R&D Systems Cat#3660-CD) (human, UniProt P16070 21-220).
T8 construct: Bought recombinant protein
The description is as above.

The target of assay [9] is T6, Recombinant Human DLL4 (R&D Systems …). Put plainly: ECL (MSD) binding assay, immobilised DLL4, repeat experiment.
Assay [10] has the same target. Description: ECL (MSD) binding assay, DLL4 signal divided by blank, repeat experiment.
For assay [11], the target named is T9, rHuman ErbB2/Fc Chimera, CF (R&D Systems Cat#1129-ER) (human, UniProt P04626 23-652).
T9 construct: Bought from R&D Systems; also called human epidermal growth factor 2 receptor; Fc part of the bought chimera not given
Description: ECL multispot (MSD) binding assay; antigen spotted on plate, Fab in solution, Ru-labelled anti-kappa detection.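 Also: purified Fab in 1% BSA TBST incubated 1 h at 20 °C with shaking, signal compared with each well's blank, signal/blank ratio of 4 or above counted as binder.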

For assay [12], the target named is T10, rHuman EGF R/Fc Chimera, CF (R&D Systems Cat#344-ER) (human, UniProt P00533 25-645).
T10 construct: Bought from R&D Systems; also called epidermal growth factor receptor; Fc part of the bought chimera not given
The description is as above.

Assay [13] addresses T11, rHuman IGF-1 sR, CF (R&D Systems Cat#391-GR) (human, UniProt P08069 31-932).
T11 construct: Bought from R&D Systems as a soluble receptor; also called insulin-like growth factor-1 soluble receptor
Described as above.

Assay [14] deals with T12, rHuman P-Cadherin/Fc Chimera, CF (R&D Systems Cat#861-PC) (human, UniProt P22223 108-654).
T12 construct: Bought from R&D Systems; Fc part of the bought chimera not given
The assay is described as above.

The target in assay [15] is T13, rHuman HGF R/c-MET/Fc Chimera, CF (R&D Systems Cat#358-MT/CF) (human, UniProt P08581 25-932).
T13 construct: Bought from R&D Systems; also called HGF R/Fc; hepatocyte growth factor receptor; Fc part of the bought chimera not given
The assay is described as above.

Assay [16] deals with T14, Recombinant Human DLL4 (R&D Systems Cat#1506-D4/CF) (human, UniProt Q9NR61 27-524).
T14 construct: Bought from R&D Systems; also called delta-like protein 4; rHuman DLL4
The description is as above.

Assay [17] addresses T15, rHuman CD44/Fc Chimera, CF (R&D Systems Cat#3660-CD) (human, UniProt P16070 21-220).
T15 construct: Bought protein; Fc part of the bought chimera not given
Description: ECL multispot (MSD) assay; antigen spotted on plate, Fab in solution.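 Also: purified Fab incubated 1 hour at 20 °C in 1% BSA TBST on antigen-coated wells, detected with TAG antibody, ECL read on Sector Imager 2400, compared to each well's blank.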

Assay [18] addresses T16, rHuman ErbB2/Fc Chimera, CF (R&D Systems Cat#1129-ER) (human, UniProt P04626 23-652).
T16 construct: Bought protein; also called human epidermal growth factor 2 receptor; Fc part of the bought chimera not given
Described as above.

In assay [19] the target is T17, rHuman IGF-1 sR, (IGF-1 sR), CF (R&D Systems Cat#391-GR) (human, UniProt P08069 31-932).
T17 construct: Bought soluble receptor; also called insulin-like growth factor-1 soluble receptor
The assay is described as above.

Assay [20] has as its target T18, Recombinant Human DLL4 (R&D Systems Cat#1506-D4/CF) (human, UniProt Q9NR61 27-524).
T18 construct: Bought recombinant protein; also called delta-like protein 4; rHuman DLL4
The description is as above.

Assay [21] has as its target T19, rHuman EGF R/Fc Chimera, CF (R&D Systems Cat#344-ER) (human, UniProt P00533 25-645).
T19 construct: Bought protein; also called epidermal growth factor receptor; Fc part of the bought chimera not given
Described as above.

The target in assay [22] is T20, rHuman HGF R/c-MET/Fc Chimera, CF (R&D Systems Cat#358-MT/CF) (human, UniProt P08581 25-932).
T20 construct: Bought protein; also called HGF R/Fc; hepatocyte growth factor receptor; Fc part of the bought chimera not given
The assay is described as above.

For assay [23], the target named is T21, rHuman Notch-1/Fc Chimera, CF (R&D Systems Cat#3647-TK) (human, UniProt P46531 19-526).
T21 construct: Bought protein; Fc part of the bought chimera not given
The description is as above.

Assay [24] concerns the target T22, rHuman Erythropoietin R/Fc Chimera, CF (R&D Systems Cat#963-ER) (human, UniProt P19235 25-250).
T22 construct: Bought protein; also called EPO R; EPO R/Fc; Fc part of the bought chimera not given
T22 sequence (looked up): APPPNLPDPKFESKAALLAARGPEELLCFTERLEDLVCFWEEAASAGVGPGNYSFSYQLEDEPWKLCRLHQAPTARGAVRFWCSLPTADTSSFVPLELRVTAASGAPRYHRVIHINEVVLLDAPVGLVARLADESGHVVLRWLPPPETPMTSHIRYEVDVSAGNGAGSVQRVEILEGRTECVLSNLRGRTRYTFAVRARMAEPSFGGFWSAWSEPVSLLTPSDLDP
The description is as above.

For assay [25], the target named is T23, rHuman P-Cadherin/Fc Chimera, CF (R&D Systems Cat#861-PC) (human, UniProt P22223 108-654).
T23 construct: Bought protein; Fc part of the bought chimera not given
The assay is described as above.

B1: Fab VH1-46_IGHD6-6*01_IGHJ1*01 S102A/S103P/S104F/H111F F29A & L6_IGKJ1*01 (Fab, V domains shown)
VH: QVQLVQSGAEVKKPGASVKVSCKASGYTATSYYMHWVRQAPGQGLEWMGIINPSGGSTSYAQKFQGRVTMTRDTSTSTVYMELSSLRSEDTAVYYCAREEYAPFSAEYFQFWGQGTLVTVSS
VL: not shown
notes: Fab as for m1 (CH1 with His6/Flag tags, kappa CL); also called APFF F29A
In the case of B1, the ECL signal in assay [1] is 276; in assay [2], 404; in [3], 315; in [4] it was 244; in [5], 293; in assay [6], 80700. Besides, the ECL signal in assay [7] was found to be 466; in assay [8], 414; in assay [9] it was 109000. Besides, the Signal/Noise in assay [10] came out at 238.

B2: Fab VH1-46_IGHD6-6*01_IGHJ1*01 S102A/S103P/S104F/H111F & L6_IGKJ1*01 (Fab, V domains shown)
VH: QVQLVQSGAEVKKPGASVKVSCKASGYTFTSYYMHWVRQAPGQGLEWMGIINPSGGSTSYAQKFQGRVTMTRDTSTSTVYMELSSLRSEDTAVYYCAREEYAPFSAEYFQFWGQGTLVTVSS
VL: not shown
notes: Tested as a Fab made in E. coli; The heavy chain vector (Plasmid A) adds CH1 with His6 and Flag tags; The light chain vector (Plasmid C) adds kappa CL; also called APFF; H:APFF & L:wt
As for B2, the ECL signal in [11] is 263; in [12], 279; in assay [13] it was 342; in assay [14] it was 318; in [15], 252; in assay [16], 197000.

B3: Fab VH1-46_IGHD6-6*01_IGHJ1*01 S102A/S103P/S104F (APF) & L6_IGKJ1*01 S30W (Fab, V domains shown)
VH: QVQLVQSGAEVKKPGASVKVSCKASGYTFTSYYMHWVRQAPGQGLEWMGIINPSGGSTSYAQKFQGRVTMTRDTSTSTVYMELSSLRSEDTAVYYCAREEYAPFSAEYFQHWGQGTLVTVSS
VL: EIVLTQSPATLSLSPGERATLSCRASQSVWSYLAWYQQKPGQAPRLLIYDASNRATGIPARFSGSGSGTDFTLTISSLEPEDFAVYYCQQRSNWPPWTFGQGTKVEIKR
notes: Tested as Fab made in E. coli; The heavy chain vector (Plasmid A) adds CH1 with His and Flag tags, the kappa vector (Plasmid C) adds CL kappa; also called APF / S30W
As to B3, the ECL signal in assay [17] is 186 ECL signal; in assay [18], 73 ECL signal; in assay [19], 157 ECL signal; in assay [20], 791 ECL signal; in assay [21], 132 ECL signal; in assay [22], 62 ECL signal. The ECL signal was determined as 105 ECL signal in [23], 30 ECL signal in assay [24] and 39 ECL signal in [25].

B4: Fab VH1-46_IGHD6-6*01_IGHJ1*01 S102A/S103P/S104F (APF) & L6_IGKJ1*01 (Fab, V domains shown)
VH: QVQLVQSGAEVKKPGASVKVSCKASGYTFTSYYMHWVRQAPGQGLEWMGIINPSGGSTSYAQKFQGRVTMTRDTSTSTVYMELSSLRSEDTAVYYCAREEYAPFSAEYFQHWGQGTLVTVSS
VL: not shown
notes: Tested as Fab made in E. coli; The heavy chain vector (Plasmid A) adds CH1 with His and Flag tags, the kappa vector (Plasmid C) adds CL kappa; also called APF / parent; H:APF & L:wt
Turning to B4, the ECL signal in assay [17] turned out to be 66 ECL signal; in [18], 61 ECL signal; in [19], 217 ECL signal; in [20], 803 ECL signal; in assay [21], 161 ECL signal; in [22] it was 86 ECL signal. Besides, the values for the ECL signal in [23], in [24] and in assay [25] were 135 ECL signal, 105 ECL signal and 117 ECL signal, respectively.

B5: Fab VH1-46_IGHD6-6*01_IGHJ1*01 S102A/S103P/S104F (APF) & L6_IGKJ1*01 S30L (Fab, V domains shown)
VH: QVQLVQSGAEVKKPGASVKVSCKASGYTFTSYYMHWVRQAPGQGLEWMGIINPSGGSTSYAQKFQGRVTMTRDTSTSTVYMELSSLRSEDTAVYYCAREEYAPFSAEYFQHWGQGTLVTVSS
VL: EIVLTQSPATLSLSPGERATLSCRASQSVLSYLAWYQQKPGQAPRLLIYDASNRATGIPARFSGSGSGTDFTLTISSLEPEDFAVYYCQQRSNWPPWTFGQGTKVEIKR
notes: Tested as Fab made in E. coli; The heavy chain vector (Plasmid A) adds CH1 with His and Flag tags, the kappa vector (Plasmid C) adds CL kappa; also called APF / S30L
As for B5, the ECL signal in assay [17] was 240 ECL signal; in assay [18], 244 ECL signal; in [19], 193 ECL signal; in assay [20], 1630 ECL signal; in assay [21] it was 288 ECL signal; in [22], 250 ECL signal. The values for the ECL signal in [23], in [24] and in [25] were 296 ECL signal, 259 ECL signal and 260 ECL signal, respectively.
